Legend:
[1] = molecular target: T1, cys2_(306t), soluble disulfide-bonded gD mutant (K190C-A277C) truncated at position 306 ( (herpes simplex virus)); …, UniProt Q69467 26-331, K190C | A277C, engineered disulfide bond Cys190-Cys277 (reduced where TCEP was added)); assay: SPR; Biacore 3000, room temperature, HBS-EP; gD captured via Mab 1D3 on a CM5 chip; soluble nectin-1 injected 300 s at 5 uL/min (also pre-mixed with 1 mM TCEP, binding unaffected); conditions: both partners purified
T1 construct: also called gD cys2; cy2; source: 293T cells, transfected, purified from supernatant (nickel column); not shown: His6, C-terminal, kept

[2] = molecular target: T2, gDL268N_(306t), soluble gD L268N truncated at residue 306 ( (herpes simplex virus; …, UniProt Q69467 26-331, L268N); assay: as above; conditions: both partners purified
T2 construct: source: 293T cells, transfected, purified from supernatant (Ni-NTA resin)

B1: soluble nectin-1 (receptor)
chain: QVVQVNDSMYGFIGTDVVLHCSFANPLPSVKITQVTWQKSTNGSKQNVAIYNPSMGVSVLAPYRERVEFLRPSFTDGTIRLSRLELEDEGVYICEFATFPTGNRESQLNLTVMAKPTNWIEGTQAVLRAKKGQDDKVLVATCTSANGKPPSVVSWETRLKGEAEYQEIRNPNGTVTVISRYRLVPSREAHQQSLACIVNYHMDRFKESLTLNVQYEPEVTIEGFDGNWYLQRMDVKLTCKADANPPATEYHWTTLNGSLPKGVEAQNRTLFFKGPINYSLAGTYICEATNPIGTRSGQVEVNITEFPYTPSPPEHGRRAGPVPTA
notes: source: baculovirus-infected insect cells (Sf9), purified
[1]
  nectin-1 binding, % of wt: ~40 % of wt
[2]
  nectin-1 binding, % of wt: ~50 % of wt

Source: publication PMC10144430 (Viruses, 2023)
